Test [1] has as its target RSV F protein (immobilized on the BIAcore sensor chip) (respiratory syncytial virus). Nature of the test: BIAcore, immobilized F protein.
A further test concerns the target Bac-F. Nature of the test: BIAcore, mAb vs Bac-F (1:1).

“And” between values parts separate entries of the source, which are not always exact repeats. Equal entries are not always repeated.

RSV F protein (immobilized on the BIAcore sensor chip) (respiratory syncytial virus), sequence (P03420 26-524): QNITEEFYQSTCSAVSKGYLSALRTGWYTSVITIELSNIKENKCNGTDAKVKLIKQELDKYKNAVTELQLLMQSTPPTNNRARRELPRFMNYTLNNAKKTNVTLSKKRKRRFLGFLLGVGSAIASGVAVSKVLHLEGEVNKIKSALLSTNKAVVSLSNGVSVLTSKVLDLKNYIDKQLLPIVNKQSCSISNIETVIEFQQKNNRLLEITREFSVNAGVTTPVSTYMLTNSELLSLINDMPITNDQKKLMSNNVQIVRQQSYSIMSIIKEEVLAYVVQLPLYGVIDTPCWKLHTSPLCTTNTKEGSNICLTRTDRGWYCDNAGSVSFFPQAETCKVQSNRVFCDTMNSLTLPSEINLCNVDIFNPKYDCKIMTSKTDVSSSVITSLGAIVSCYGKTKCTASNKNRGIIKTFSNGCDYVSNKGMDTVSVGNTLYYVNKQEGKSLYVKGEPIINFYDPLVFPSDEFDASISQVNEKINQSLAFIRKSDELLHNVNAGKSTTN

B1: AFFF (monoclonal antibody) (antibody, V domains shown)
VH: QVTLRESGPALVKPTQTLTLTCTFSGFSLSTAGMSVGWIRQPPGKALEWLADIWWDDKKDYNPSLKSRLTISKDTSKNQVVLKVTNMDPADTATYYCARSMITNFYFDVWGAGTTVTVSS
VL: DIQMTQSPSTLSASVGDRVTITCSASSSVGYMHWYQQKPGKAPKLLIYDTFKLASGVPSRFSGSGSGTEFTLTISSLQPDDFATYYCFQFSGYPFTFGGGTKLEIK
B1: in test [1], the koff is 0.000274 s⁻¹ and 0.000266 s⁻¹ and 0.000206 s⁻¹; the kon is 108000 M⁻¹ s⁻¹ and 96000 M⁻¹ s⁻¹ and 124000 M⁻¹ s⁻¹.

B2: A12a6 (monoclonal antibody) (antibody, V domains shown)
VH: QVTLRESGPALVKPTQTLTLTCTFSGFSLSTAGMSVGWIRQPPGKALEWLADIWWDGKKDYNPSLKDRLTISKDTSKNQVVLKVTNMDPADTATYYCARDMIFNFYFDVWGQGTTVTVSS
VL: DIQMTQSPSTLSASVGDRVTITCSASSRVGYMHWYQQKPGKAPKLLIYDTFKLSSGVPSRFSGSGSGTEFTLTISSLQPDDFATYYCFQGSGYPFTFGGGTKVEIK
On to B2, for which, in the test with Bac-F, the Kd was 40 pM, the koff turned out to be 1.65e-05 s⁻¹, the kon amounted to 460000 M⁻¹ s⁻¹ and the number in parentheses after KD (fold against SYNAGIS = 1) worked out at 98 fold.

B3: A1e9 (monoclonal antibody) (antibody, V domains shown)
VH: QVTLRESGPALVKPTQTLTLTCTFSGFSLSTPGMSVGWIRQPPGKALEWLADIWWDGKKHYNPSLKDRLTISKDTSKNQVVLKVTNMDPADTATYYCARDMIFNWYFDVWGQGTTVTVSS
VL: DIQMTQSPSTLSASVGDRVTITCSLSSRVGYMHWYQQKPGKAPKLLIYDTFKLSSGVPSRFSGSGSGTEFTLTISSLQPDDFATYYCFQGSGYPFTFGGGTKVEIK
Regarding B3, in the test with Bac-F, the dissociation constant (Kd) came out at 330 pM, the koff worked out at 0.000143 s⁻¹, the kon turned out to be 433000 M⁻¹ s⁻¹ and the number in parentheses after KD (fold against SYNAGIS = 1) was determined as 12 fold.

B4: AFFF (Fab fragment) (Fab, V domains shown)
VH: QVTLRESGPALVKPTQTLTLTCTFSGFSLSTAGMSVGWIRQPPGKALEWLADIWWDDKKDYNPSLKSRLTISKDTSKNQVVLKVTNMDPADTATYYCARSMITNFYFDVWGAGTTVTVSS
VL: DIQMTQSPSTLSASVGDRVTITCSASSSVGYMHWYQQKPGKAPKLLIYDTFKLASGVPSRFSGSGSGTEFTLTISSLQPDDFATYYCFQFSGYPFTFGGGTKLEIK
As to B4, in test [1], the koff was 0.000245 s⁻¹ and 0.000446 s⁻¹ and 0.000268 s⁻¹; the kon was 212000 M⁻¹ s⁻¹ and 156000 M⁻¹ s⁻¹ and 186000 M⁻¹ s⁻¹.

B5: P11d4 (monoclonal antibody) (antibody, V domains shown)
VH: QVTLRESGPALVKPTQTLTLTCTFSGFSLSTPGMSVGWIRQPPGKALEWLADIWWDGKKHYNPSLKDRLTISKDTSKNQVVLKVTNMDPADTATYYCARDMIFNWYFDVWGQGTTVTVSS
VL: DIQMTQSPSTLSASVGDRVTITCSPSSRVGYMHWYQQKPGKAPKLLIYDTMRLASGVPSRFSGSGSGTEFTLTISSLQPDDFATYYCFQGSGYPFTFGGGTKVEIK
B5: in the test with Bac-F, the Kd came out at 620 pM, the koff is 0.000289 s⁻¹, the association rate constant (kon) was 466000 M⁻¹ s⁻¹ and the number in parentheses after KD (fold against SYNAGIS = 1) came to 6 fold.

B6: L1-7E5 (Fab fragment) (Fab, V domains shown)
VH: QVTLRESGPALVKPTQTLTLTCTFSGFSLSTAGMSVGWIRQPPGKALEWLADIWWDDKKDYNPSLKSRLTISKDTSKNQVVLKVTNMDPADTATYYCARDMITNFYFDVWGAGTTVTVSS
VL: DIQMTQSPSTLSASVGDRVTITCSASSSVGYMHWYQQKPGKAPKLLIYDTFRLASGVPSRFSGSGSGTEFTLTISSLQPDDFATYYCFQGSGYPFTFGGGTKLEIK
In the case of B6, the koff in test [1] is 0.000192 s⁻¹ and 0.000331 s⁻¹ and 0.000229 s⁻¹.

B7: A8c7 (monoclonal antibody) (antibody, V domains shown)
VH: QVTLRESGPALVKPTQTLTLTCTFSGFSLSTAGMSVGWIRQPPGKALEWLADIWWDDKKSYNPSLKDRLTISKDTSKNQVVLKVTNMDPADTATYYCARDMIFNWYFDVWGQGTTVTVSS
VL: DIQMTQSPSTLSASVGDRVTITCSASSRVGYMHWYQQKPGKAPKLLIYDTRYQSSGVPSRFSGSGSGTEFTLTISSLQPDDFATYYCFQGSGYPFTFGGGTKLEIK
For the molecule B7, in the test with Bac-F, the Kd was 210 pM, the koff stood at 8.75e-05 s⁻¹, the kon came to 417000 M⁻¹ s⁻¹ and the number in parentheses after KD (fold against SYNAGIS = 1) was 19 fold.

B8: A17d4 (monoclonal antibody) (antibody, V domains shown)
VH: QVTLRESGPALVKPTQTLTLTCTFSGFSLSTAGMSVGWIRQPPGKALEWLADIWWDGKKSYNPSLKDRLTISKDTSKNQVVLKVTNMDPADTATYYCARDMIFNFYFDVWGQGTTVTVSS
VL: DIQMTQSPSTLSASVGDRVTITCLPSSRVGYMHWYQQKPGKAPKLLIYDTMYQASGVPSRFSGSGSGTEFTLTISSLQPDDFATYYCFQFSGYPFTFGGGTKLEIK
In the case of B8, in the test with Bac-F, the Kd stood at 90 pM, the dissociation rate constant (koff) is 4.07e-05 s⁻¹, the kon was determined as 456000 M⁻¹ s⁻¹ and the number in parentheses after KD (fold against SYNAGIS = 1) was 43 fold.

B9: P12f4 (monoclonal antibody) (antibody, V domains shown)
VH: QVTLRESGPALVKPTQTLTLTCTFSGFSLSTPGMSVGWIRQPPGKALEWLADIWWDGKKHYNPSLKDRLTISKDTSKNQVVLKVTNMDPADTATYYCARDMIFNFYFDVWGQGTTVTVSS
VL: DIQMTQSPSTLSASVGDRVTITCSLSSRVGYMHWYQQKPGKAPKLLIYDTRGLPSGVPSRFSGSGSGTEFTLTISSLQPDDFATYYCFQGSGYPFTFGGGTKVEIK
Regarding B9, in the test with Bac-F, the Kd turned out to be 110 pM, the koff is 5.55e-05 s⁻¹, the kon stood at 495000 M⁻¹ s⁻¹ and the number in parentheses after KD (fold against SYNAGIS = 1) turned out to be 35 fold.

B10: P12f2 (monoclonal antibody) (antibody, V domains shown)
VH: QVTLRESGPALVKPTQTLTLTCTFSGFSLSTPGMSVGWIRQPPGKALEWLADIWWDDKKHYNPSLKDRLTISKDTSKNQVVLKVTNMDPADTATYYCARDMIFNFYFDVWGAGTTVTVSS
VL: DIQMTQSPSTLSASVGDRVTITCSLSSRVGYMHWYQQKPGKAPKLLIYDTFYLSSGVPSRFSGSGSGTEFTLTISSLQPDDFATYYCFQGSGYPFTFGGGTKVEIK
For the molecule B10, in the test with Bac-F, the Kd worked out at 310 pM, the off-rate (koff) came to 0.000128 s⁻¹, the kon was 407000 M⁻¹ s⁻¹ and the number in parentheses after KD (fold against SYNAGIS = 1) turned out to be 13 fold.

B11: A13c4 (monoclonal antibody) (antibody, V domains shown)
VH: QVTLRESGPALVKPTQTLTLTCTFSGFSLSTAGMSVGWIRQPPGKALEWLADIWWDGKKSYNPSLKDRLTISKDTSKNQVVLKVTNMDPADTATYYCARDMIFNFYFDVWGQGTTVTVSS
VL: DIQMTQSPSTLSASVGDRVTITCSLSSRVGYMHWYQQKPGKAPKLLIYDTMYQSSGVPSRFSGSGSGTEFTLTISSLQPDDFATYYCFQGSGYPFTFGGGTKVEIK
Regarding B11, in the test with Bac-F, the Kd came to 130 pM, the koff came to 3.96e-05 s⁻¹, the kon worked out at 300000 M⁻¹ s⁻¹ and the number in parentheses after KD (fold against SYNAGIS = 1) was determined as 30 fold.
